PMC4513872

Molecular target: C-Intein_C-Cas9_v1 (Nostoc punctiforme | Streptococcus pyogenes) (UniProt Q99ZW2)

**Q.** For “N-Cas9_N-Intein_v1 (from UniProt Q99ZW2 1-573)”, which percentage of indels at the endogenous Fus locus in Neuro-2a cells (T7 endonuclease I assay) after transfection of both moieties; wild-type SpCas9 gave 23.1% is on record?
**A.** Its percentage of indels at the endogenous Fus locus in Neuro-2a cells (T7 endonuclease I assay) after transfection of both moieties; wild-type SpCas9 gave 23.1% is 22.7%.
